From patent publication US20250320312A1 (OXITOPE PHARMA B V, published 2025)
Positions count from the first letter of the chain named.

T1: Peptide 4: Biotin-AGGGGSGGGGSGGGGSAAA-Tyr-acid (N-terminal biotin; C-terminal acid)
T1 construct: control peptide without PC
T1 peptide: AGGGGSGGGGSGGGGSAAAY

T2: Peptide 8: Biotin-AEAAAKEAAAKEAAAKEAAAKAAA-Tyr-acid (N-terminal biotin; C-terminal acid)
T2 construct: control peptide without PC
T2 peptide: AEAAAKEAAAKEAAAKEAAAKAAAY

B1: PcOxP_DB01_B07 (scFv, V domains shown)
VH: EVQLLESGGGLVQPGGSLRLSCAASGFTFSDYYMEWVRQAPGKGLEWVAASRNKANDYTTEYADSVKGRFTISRDNSKNTLYLQMNSLRAEDTAVYYCARDYYGSSYWYFDVWGQGTLVTVSS
VL: DIQMTQSPSSLSASVGDRVTITCTASESLYSSKHKVHYLAWYQQKPGKAPKLLIYGASNRYIGVPSRFSGSGSGTDFTLTISSLQPEDFATYYCAQFYSYPLTFGGGTKVEIK
notes: scFv in periplasmic extract
B2: PcOxP_DB01_A06 (scFv, V domains shown)
VH: B1 VH
VL: B1 VL with Q96E
notes: scFv in periplasmic extract
B3: PcOxP_DB01_A12 (scFv, V domains shown)
VH: B1 VH with T28G, Y32F, A55W, F110Y
VL: B1 VL with Y61E, A95Q
notes: scFv in periplasmic extract
B4: PcOxP_DB01_B01 (scFv, V domains shown)
VH: B1 VH with Y32Q, M34I, Y103L
VL: B1 VL with N59H, S99A
notes: scFv in periplasmic extract
B5: PcOxP_DB01_B04 (scFv, V domains shown)
VH: B1 VH with Y32G
VL: B1 VL
notes: scFv in periplasmic extract
B6: PcOxP_DB01_B05 (scFv, V domains shown)
VH: B1 VH with F29A, Y32F, A55W
VL: B1 VL with N59S, R60L, Y61Q
notes: scFv in periplasmic extract
B7: PcOxP_DB01_B08 (scFv, V domains shown)
VH: B1 VH with Y32S, E61S
VL: B1 VL
notes: scFv in periplasmic extract
B8: PcOxP_DB01_B09 (scFv, V domains shown)
VH: B1 VH
VL: B1 VL with I62T, S99H
notes: scFv in periplasmic extract
B9: PcOxP_DB01_B11 (scFv, V domains shown)
VH: B1 VH with S30E, Y32F, Y103F
VL: B1 VL with I62H
notes: scFv in periplasmic extract
B10: PcOxP_DB01_C01 (scFv, V domains shown)
VH: B1 VH with Y32F
VL: B1 VL with T24V
notes: scFv in periplasmic extract
B11: PcOxP_DB01_C03 (scFv, V domains shown)
VH: B1 VH with Y32Q
VL: B1 VL with S99Q
notes: scFv in periplasmic extract
B12: PcOxP_DB01_C04 (scFv, V domains shown)
VH: B1 VH with T28Q, Y32F
VL: B1 VL with S99Y
notes: scFv in periplasmic extract
B13: PcOxP_DB01_C05 (scFv, V domains shown)
VH: B1 VH with Y32G
VL: B1 VL with A57S, S99A
notes: scFv in periplasmic extract
B14: PcOxP_DB01_C06 (scFv, V domains shown)
VH: B1 VH with T28E, Y32N
VL: B1 VL with Y61F, S99Y
notes: scFv in periplasmic extract
B15: PcOxP_DB01_C08 (scFv, V domains shown)
VH: B1 VH with Y32G, G104A
VL: B1 VL with T24R, L29I, Y30S, H34N, I62Y
notes: scFv in periplasmic extract
B16: PcOxP_DB01_C12 (scFv, V domains shown)
VH: B1 VH with Y32F, Y62L
VL: B1 VL with S58A, S99V
notes: scFv in periplasmic extract
B17: PcOxP_DB01_D02 (scFv, V domains shown)
VH: B1 VH with T28E, Y32F, N53G, A55G, D57S
VL: B1 VL with A95G
notes: scFv in periplasmic extract
B18: PcOxP_DB01_D05 (scFv, V domains shown)
VH: B1 VH with Y32G, S106P
VL: B1 VL with I62V
notes: scFv in periplasmic extract
B19: PcOxP_DB01_D08 (scFv, V domains shown)
VH: B1 VH with Y32A, V112S
VL: B1 VL
notes: scFv in periplasmic extract
B20: PcOxP_DB01_D09 (scFv, V domains shown)
VH: B1 VH with F29E, Y32F
VL: B1 VL with S32A, A57S, S99D
notes: scFv in periplasmic extract
B21: PcOxP_DB01_E04 (scFv, V domains shown)
VH: B1 VH with Y32A, V112T
VL: B1 VL with I62D
notes: scFv in periplasmic extract
B22: PcOxP_DB01_E05 (scFv, V domains shown)
VH: B1 VH
VL: B1 VL with H37N, S99Q
notes: scFv in periplasmic extract
B23: PcOxP_DB01_E06 (scFv, V domains shown)
VH: B1 VH with Y32Q, V112L
VL: B1 VL with L39V, S99Y
notes: scFv in periplasmic extract
B24: PcOxP_DB01_E11 (scFv, V domains shown)
VH: B1 VH with Y32F, T59V
VL: B1 VL with E27F, I62P, S99Y
notes: scFv in periplasmic extract
B25: PcOxP_DB01_F04 (scFv, V domains shown)
VH: B1 VH with D31S, A55Y
VL: B1 VL with S58V, S99R
notes: scFv in periplasmic extract
B26: PcOxP_DB01_F10 (scFv, V domains shown)
VH: B1 VH with D31S
VL: B1 VL with R60G, S99T
notes: scFv in periplasmic extract
B27: PcOxP_DB01_G01 (scFv, V domains shown)
VH: B1 VH with F29G, Y32F, A55G, D57S
VL: B1 VL with S31G, I62S
notes: scFv in periplasmic extract
B28: PcOxP_DB01_G09 (scFv, V domains shown)
VH: B1 VH with D57T
VL: B1 VL with R60L, I62S
notes: scFv in periplasmic extract
B29: PcOxP_DB01_G11 (scFv, V domains shown)
VH: B1 VH with Y32G, A55N, Y103F
VL: B1 VL
notes: scFv in periplasmic extract

Biological target: T1, Peptide 4: …
Test: scFv ELISA
Experimental: (§1) For ELISA analysis of scFv binding, 96-well polystyrene plates were coated with Peptide 1, 4, 5, 8 or 100 μL BSA (10 μg/mL) in PBS at 4° C. overnight. Plates were washed three times with PBS-Tween and blocked with 100 μL 1% BSA-TBS for 1 hour at room temperature. 96-well streptavidin coated plates were coated with 100 μL biotinylated PC-peptides (1 μg/mL) in PBS for 1 hour at room temperature.
(§2) All plates were washed three times with PBS-Tween before 40 μL aliquots of PPE were added to assay plates along with 50 μL 10% BSA, and plates were incubated for 1 hour at room temperature. After washing, […] HRP conjugated anti-V5 in 5% BSA was added, and plates were incubated at room temperature for 30 mins. Plates were washed and 100 μL TMB substrate was added. Color was left to develop at room temperature before the reaction was stopped with 100 μL 1N HCl. The amount of scFv bound to each well was quantitated from absorbance measurement at 450 nm (OD450).

Binder	OD450
B1	0.06 OD450
B2	0.06 OD450
B3	0.06 OD450
B4	0.07 OD450
B5	0.06 OD450
B6	0.05 OD450
B7	0.06 OD450
B8	0.05 OD450
B9	0.05 OD450
B10	0.06 OD450
B11	0.06 OD450
B12	0.05 OD450
B13	0.06 OD450
B14	0.05 OD450
B15	0.06 OD450
B16	0.05 OD450
B17	0.05 OD450
B18	0.06 OD450
B19	0.05 OD450
B20	0.05 OD450
B21	0.05 OD450
B22	0.06 OD450
B23	0.05 OD450
B24	0.05 OD450
B25	0.05 OD450
B26	0.05 OD450
B27	0.06 OD450
B28	0.06 OD450
B29	0.06 OD450

Biological target: T2, Peptide 8: …
Test: scFv ELISA
Experimental: as §1, §2

Binder	OD450
B1	0.05 OD450
B2	0.06 OD450
B3	0.05 OD450
B4	0.05 OD450
B5	0.05 OD450
B6	0.05 OD450
B7	0.05 OD450
B8	0.05 OD450
B9	0.04 OD450
B10	0.05 OD450
B11	0.05 OD450
B12	0.05 OD450
B13	0.06 OD450
B14	0.05 OD450
B15	0.05 OD450
B16	0.05 OD450
B17	0.05 OD450
B18	0.05 OD450
B19	0.05 OD450
B20	0.05 OD450
B21	0.04 OD450
B22	0.06 OD450
B23	0.05 OD450
B24	0.06 OD450
B25	0.05 OD450
B26	0.05 OD450
B27	0.05 OD450
B28	0.05 OD450
B29	0.06 OD450

What follows are binders tested against Peptide 5: Biotin-…-[Tyr(PC)]-acid (assay: scFv ELISA).

Binder	OD450
B1	1.36 OD450
B2	1.18 OD450
B3	1.04 OD450
B4	0.9 OD450
B5	1.02 OD450
B6	0.74 OD450
B7	0.89 OD450
B8	1.42 OD450
B9	1.32 OD450
B10	1.13 OD450
B11	1.37 OD450
B12	1.42 OD450
B13	1.11 OD450
B14	1.31 OD450
B15	0.79 OD450
B16	1.18 OD450
B17	1.27 OD450
B18	1.56 OD450
B19	1.08 OD450
B20	0.66 OD450
B21	1.12 OD450
B22	1.39 OD450
B23	1.05 OD450
B24	0.73 OD450
B25	0.57 OD450
B26	0.98 OD450
B27	1.33 OD450
B28	1.4 OD450
B29	1.32 OD450

What follows are binders tested against BSA (UniProt P02769) (assay: scFv ELISA).
Chain of BSA (P02769 25-607 limits assumed): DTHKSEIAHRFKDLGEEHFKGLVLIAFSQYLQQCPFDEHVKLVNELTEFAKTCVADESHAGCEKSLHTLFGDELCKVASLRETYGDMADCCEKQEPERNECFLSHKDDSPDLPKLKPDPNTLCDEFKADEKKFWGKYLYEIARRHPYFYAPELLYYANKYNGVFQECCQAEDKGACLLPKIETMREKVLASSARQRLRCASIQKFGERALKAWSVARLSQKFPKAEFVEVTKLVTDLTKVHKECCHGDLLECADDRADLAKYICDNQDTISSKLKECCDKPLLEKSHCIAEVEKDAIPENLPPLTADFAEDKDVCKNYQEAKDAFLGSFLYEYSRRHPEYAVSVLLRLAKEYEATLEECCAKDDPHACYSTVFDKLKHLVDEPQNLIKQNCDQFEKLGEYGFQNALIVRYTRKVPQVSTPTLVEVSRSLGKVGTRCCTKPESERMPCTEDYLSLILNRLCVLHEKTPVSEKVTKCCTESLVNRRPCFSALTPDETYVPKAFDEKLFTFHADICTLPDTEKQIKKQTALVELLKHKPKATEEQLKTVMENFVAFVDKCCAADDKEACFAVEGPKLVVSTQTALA

Binder	OD450
B1	0.11 OD450
B2	0.1 OD450
B3	0.09 OD450
B4	0.1 OD450
B5	0.08 OD450
B6	0.1 OD450
B7	0.1 OD450
B8	0.1 OD450
B9	0.09 OD450
B10	0.11 OD450
B11	0.1 OD450
B12	0.08 OD450
B13	0.11 OD450
B14	0.08 OD450
B15	0.1 OD450
B16	0.08 OD450
B17	0.09 OD450
B18	0.1 OD450
B19	0.08 OD450
B20	0.07 OD450
B21	0.07 OD450
B22	0.11 OD450
B23	0.09 OD450
B24	0.09 OD450
B25	0.09 OD450
B26	0.09 OD450
B27	0.09 OD450
B28	0.11 OD450
B29	0.09 OD450

What follows are binders tested against Peptide 1: Biotin-…-[Tyr(PC)]-acid (assay: scFv ELISA).

Binder	OD450
B1	1.07 OD450
B2	0.74 OD450
B3	0.29 OD450
B4	0.87 OD450
B5	0.57 OD450
B6	0.23 OD450
B7	0.41 OD450
B8	1 OD450
B9	1.11 OD450
B10	0.71 OD450
B11	0.98 OD450
B12	1.38 OD450
B13	0.79 OD450
B14	1.18 OD450
B15	0.38 OD450
B16	0.88 OD450
B17	0.56 OD450
B18	0.87 OD450
B19	0.58 OD450
B20	0.27 OD450
B21	0.55 OD450
B22	0.95 OD450
B23	0.68 OD450
B24	0.62 OD450
B25	0.36 OD450
B26	0.68 OD450
B27	0.58 OD450
B28	0.92 OD450
B29	0.99 OD450
